Experimental data taken from the supplement of paper PMC12764529.
± gives the half width of the 95% confidence interval.

Legend:
[1] = folding stability dG unfold from trypsin proteolysis; higher = more stable
Procedure, shortened: (§1)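 Mini-proteins designed to be under 80 residues and free of cysteine were carried in a PA-tagged cDNA display construct and digested with trypsin and with chymotrypsin. Each protease was applied at 11 threefold-diluted concentrations, alongside a no-protease condition, before sequencing. K50 came from Bayesian fitting of the sequencing counts, and unfolding free energy was obtained by comparing it with a sequence-predicted unfolded-state K50 and a shared folded-state K50, for each protease separately or for both together. Designs were retained only if their AlphaFold2 dimer inter-PAE exceeded 15.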

[2] = folding stability dG unfold from chymotrypsin proteolysis; higher = more stable
Procedure, shortened: as §1

[3] = folding stability dG unfold (combined trypsin and chymotrypsin); higher = more stable
Procedure, shortened: as §1

Row | Sequence | folding stability dG unfold [1] [kJ/mol] | folding stability dG unfold [2] [kJ/mol] | folding stability dG unfold [3] [kJ/mol]
1 | SDRFTATVEYPDTGKTETIELDPSHLSITVEFTGSATFRVTISYDVNGDTFTVEAEFTAPLAPVPPEAFLSA [r9_1067_TrMRF] | 9.41 ± 0.628 | 11.2 ± 0.117 | 10.5 ± 0.46
2 | SAGGPVTTVSVSGFVLPDGSRALLVTVATYYPDGYVAVPPVLVLVYPNGESEASTSTLVVKVPGGALSAGGS [r16_505_TrMRF] | 9.61 ± 0.234 | 12.59 ± 0.046 | 11.7 ± 0.167
3 | SAGGSAGGDYMMIKITNGSIKLMDGDDGKPIANLPPNQEITIMIPIKPPPPPEERKYDPNGKPKSAGGSAGG [r6_40_TrROS] | 2.15 ± 0.837 | 5.2 ± 0.837 | 3.34 ± 1.34
4 | SAGKKIHITLTEDELREIAEALGLEPEDMTAEELAARLREEFPDVEVTIEKPPVEEREREERELAEEEKSAG [r5_264_TrROS_Hall] | 7.35 ± 0.268 | 4.12 ± 0.285 | 5.44 ± 0.586
5 | SAGSMVEERVRELLRELDPERPWEIERLPDGTIVARDPETGRWYIFKVEPDGTVTLERVLSLEEYERLSSAG [r5_852_JUSTAS] | 14.1 ± 0.314 | 20 ± 0.318 | 18.5 ± 0.46
6 | SAGGSAGGSAGLEVPEGYEVKILDVNPETLPNGERVVSMTVLIIDPDGNPRKVEFRFYAPSAGGSAGGSAGG [r11_570_TrMRF] | 10.3 ± 0.711 | 8.78 ± 0.264 | 9.52 ± 0.351
7 | SAGMVKIEIEVKVEKDEDGRLRVTVRITIYDEKTGEKLKEIEIEVEAPSEEEAERAARKKAEELLKELSAGG [r19_255_TrROS_Hall] | 16.3 ± 0.753 | 10.8 ± 0.364 | 13.6 ± 0.795
8 | SAGMKIEEKDGYLVITFKTKEEAEEAAKKLKELFPDAEIVEIKVEKDENGNETVTIVIKLKNLSPEALKSAG [r5_857_TrROS_Hall] | 6.38 ± 0.322 | 8.55 ± 0.502 | 7.74 ± 0.962
9 | SAGGSAGGSAGGSRTIYEPVPPDVAGTRLITFTSPDSEPLSTRTVSVTPVPGGRGAVILGSAGGSAGGSAGG [r7_64_JUSTAS] | -3.08 ± 1.84 | -3.84 ± 3.05 | -2.51 ± 0.962
10 | SAGGSAGGSAGREIADEIKDILQEKGFEIKDIEVTRPPNGYPMVEITVRHDNGKKWTIWISAGGSAGGSAGG [r11_780_TrROS] | 6.27 ± 0.159 | 7.98 ± 0.397 | 7.35 ± 0.414
11 | SAGGMEFTPDQFLIIVLGLPDDTLEVAIIPAGDIEKAFEELGFPLEEVDILEIVEADLTPEEAEELAESAGG [r13_850_TrMRF] | 7.57 ± 0.418 | 6.5 ± 0.192 | 7.04 ± 0.368
12 | SAGGSAGGSAGKPVLTLTLRLEDGTLVRIEFDLETEELTVRVLDLETGEEKEFTFKLPAPSAGGSAGGSAGG [r11_931_TrROS_Hall] | 14.7 ± 0.92 | 17 ± 0.31 | 16.3 ± 0.586
13 | SAGGSAGGSAGGPPDDWILMIEIVTITIEMKYKDGGKEVERKMEILVIEIAIIPPDDLPSAGGSAGGSAGGS [r10_300_TrROS] | 9.25 ± 0.837 | 15 ± 1.21 | 13 ± 1.55
14 | SAGGSAGSLSPIGEHPYTLPDGSRITVPIYRDPATGEIVVEVETETEEEDISEKAEEYAEKVREALSAGGSA [r15_529_JUSTAS] | -0.0614 ± 0.201 | -2.39 ± 1.88 | -1.04 ± 0.586
15 | SAGGSAGGSAGKTYEIVEYNPETKKFLIRFEDGSTKEVEVKPGDKIEVPPGAKVEIVPLDSAGGSAGGSAGG [r17_295_TrROS_Hall] | 8.11 ± 0.289 | 7.35 ± 0.418 | 7.85 ± 0.586
16 | SAGGSAGGSAGSMVSVEVEESELPPPYRLVTEKVSLPGSETVIEVVRDPATGEVLETKVFASSAGGSAGGSA [r18_507_JUSTAS] | 15.8 ± 1.17 | 13.9 ± 1.05 | 14.1 ± 2.47
17 | SEIEIEPLTLDEPVEYRVPEGGFTITAYAAPGPLLVRVRIPGTGEEFEIAVPLGEPNWEEVAEAVVRAIRSA [r9_982_TrMRF] | 7.361 ± 0.0628 | 5.3 ± 0.36 | 6.55 ± 0.243
18 | GMIVEIVESPEGTVTLYEVLLPGGTPILVGAADEEKLRERVAKELGVSFEKLKITKTTTLSPEELAALLAAS [r1_119_JUSTAS] | 5.87 ± 0.0837 | 7.25 ± 0.222 | 6.96 ± 0.586
19 | SAGGSAGGSPKIELLDSRPRPDGSLVELLAIEAEDEIRLLVIVTHPDGVDIRFFEPEYPDLDLSAGGSAGGS [r12_315_TrMRF] | 1.61 ± 0.628 | 0.0335 ± 0.753 | 1.17 ± 1.26
20 | SAGGVLETKLPGGVSVTYSETPFVKDGREYLVLPAAAGDPAGAPFVTTTVVEPETGEVLETTETPLASAGGS [r8_492_JUSTAS] | 1.39 ± 0.247 | 2.24 ± 0.544 | 1.95 ± 0.418
21 | SAGGKAKIVEIKYNEETGTVTIKIKNEDGEEYEISIKLPPGAKIEIDEDGNITIKDIPAEQIEVRKVSAGGS [r16_515_TrROS_Hall] | 3.74 ± 0.126 | 7.03 ± 0.234 | 6.09 ± 0.502

Row | Sequence | folding stability dG unfold [1] [kJ/mol] | folding stability dG unfold [2] [kJ/mol] | folding stability dG unfold [3] [kJ/mol]
22 | SAGGSAGGSKWIKIMYMIPPGDPEEIIEKLLPPGYKIEEVEVQRMPGYFMVDITIRDEDPDAISAGGSAGGS [r12_445_TrROS] | 10.3 ± 0.46 | 9.91 ± 0.669 | 9.92 ± 0.879
23 | SAGGSAGGSEKEVYVRNENGELYRFRAKAAPKLKLKLKLELERDENGNLSLRLELEVVSEEDLSAGGSAGGS [r12_1027_TrROS_Hall] | 14.9 ± 0.586 | 21.7 ± 0.628 | 19.4 ± 1.67
24 | SAGGSMVVVPVEVTVPPEELEQYLEDLRAAYEKPGVKVEILPVEREPIRDPAGRVEEVRAKATIKIVPSAGG [r13_707_JUSTAS] | -2.14 ± 0.879 | 2.18 ± 0.176 | 0.865 ± 0.335
25 | SAGGSAGGSMGLNVTYTVNVTHPDGTVETFPFEFDGTPEEAEEFARAIAEAHPDVKVTVTPGASAGGSAGGS [r12_268_TrMRF] | 12.8 ± 0.502 | 12.8 ± 0.155 | 12.7 ± 0.318
26 | SAGGSAKVKIIVTYNDGKKEEIIFDIPENYEISEVEKIAKKIAKNIAKKKNLPNVNIKVEKIEPLESAGGSA [r15_463_TrMRF] | 10.1 ± 0.197 | 14.2 ± 0.251 | 12.9 ± 0.31
27 | SAGGSAGGSEKKFKIVSVKVEYNKETGTVTIEVEIYDEKTGKLVLKATITINKNGELKITLEPSAGGSAGGS [r12_115_TrROS_Hall] | 16.3 ± 1.88 | 22 ± 1.92 | > 25.1
28 | SAGTVKVSEDGDKLTVTMTAPPESPALVEALIQALKDAGLTIVTAEITTEPGEGDLVRTTITLTLKPPASAG [r5_739_JUSTAS] | 9.75 ± 0.343 | 10.65 ± 0.1 | 10.3 ± 0.251
29 | SAGGKTLYVRIIIENKKTGKKEEKIIKIKNVKTLDELLEKAKKEAEKKGYKIKKIEVYDKKTGKKLKLSAGG [r13_771_TrROS_Hall] | 7.49 ± 0.368 | 5.36 ± 1.13 | 7.22 ± 1.63
30 | SAGGSAGGMIRFDTPEEVEAALKALRAKLPPGATLVIEIEVDGKLVRVEFKDGKITKVEVRELPSAGGSAGG [r6_288_TrROS_Hall] | 12.6 ± 0.669 | 15.3 ± 0.502 | 14.9 ± 0.837
31 | SAGGSAGGSAGGPEIITFRNPGNGVTLMVWRTPNNITVSIYNPDGPQKEIPIPPGEPIFSAGGSAGGSAGGS [r10_976_TrROS] | 3.49 ± 0.41 | 4.06 ± 1.51 | 3.66 ± 0.795
32 | SAGGSAGGSKKKKKITIEILIKLKPGESPEEIAKKLEEKLGLKVKKVEVVKENGYYLVKIEIESAGGSAGGS [r20_188_TrROS_Hall] | 6.36 ± 0.159 | 13.6 ± 0.184 | 11.9 ± 0.351
33 | SAGGSAGGSAGDTLILVRNEDGRLYLIRVRAYRVPGEDGSLVFEVEIVEFPSLEEALAALSAGGSAGGSAGG [r11_967_TrROS_Hall] | 17 ± 0.272 | 20.19 ± 0.163 | 19.5 ± 0.213
34 | SAGGKTVLVPVKSPEEAKIFIENFPESYDKVIVFNPETGTKAVFYIDPKTREVKEVKVEKFDLNDPNASAGG [r13_945_TrMRF] | 3.82 ± 0.0711 | 5.11 ± 0.218 | 4.71 ± 0.276
35 | SAGGSAGGSAGGMKILSVEEDAPPDYVTVTELTVDSEGNKKIITTTIPIEPPPEVSPSLISAGGSAGGSAGG [r7_873_JUSTAS] | 4.81 ± 0.163 | 6.08 ± 0.418 | 5.17 ± 0.711
36 | SAGGSAGGMKVTIEKENGKYRIKVEIEKNGKKIEIEIDMSVEELKKELEKKLNIKIKKVEIEPVSAGGSAGG [r6_762_TrROS_Hall] | 7.13 ± 0.837 | 4.29 ± 2.22 | 6.27 ± 2.76
37 | SAGGSAGGSGWRPARVVRVERYRDPVNPRWYYRVEAELPDRRVTLVVPENAPVDEDGVLLIPFSAGGSAGGS [r20_49_TrMRF] | 4.55 ± 0.113 | 6.08 ± 0.176 | 5.63 ± 0.142
38 | SAGGSAGGSKQILKKLGLPPGKEVQIMMTPNDMNELRDLPGIKSIKMEPRPDGYYQHSIRIDNSAGGSAGGS [r12_750_TrROS] | -5.47 ± 2.47 | -1.61 ± 1.38 | -2.44 ± 2.05
39 | SSMYLLTVEITRPDGSVSSKTVPVNFAPGTTIDELLKALNLPKSSLATVTVTATEYSGGPPVTSTHTITLSA [r9_755_JUSTAS] | 8.47 ± 0.272 | 10.2 ± 0.218 | 9.78 ± 0.251
40 | SAGSMTPEEIRERIEALAEEVGEPPVRVLLKGPSGPLYELDVRFTPEHLEEARRALGVDVVEVEPVPESAGG [r19_50_JUSTAS] | 1.24 ± 0.285 | -2.14 ± 1.34 | -0.023 ± 0.711
41 | SAGGSAMIEVKIEVPDDASEEEKAELAEKIKKEIKASGVEPTENGIPVKKSLENVEVKVTFLKKKKSAGGSA [r15_717_JUSTAS] | -1.96 ± 0.837 | 0.31 ± 1.38 | -0.822 ± 1.59
